According to patent US10844127:
Like-named read-outs stand apart in the source and are kept apart here.

Assays:
Assay in all cases: cell-based or functional assay
[1] = molecular target: human EGFR, full length (human) (UniProt P00533)
[2] = molecular target: human HER3 (ErbB-3) on BxPC-3 cells (human) (UniProt P21860)
[3] = molecular target: human EGFR, full length (human) (UniProt P00533); remark: listed apart in the source
[4] = molecular target: human HER3 (ErbB-3) on BxPC-3 cells (human) (UniProt P21860); remark: listed apart in the source

B1: MEHD7945A (antibody, INN chains, looked up, V domains shown)
VH: EVQLVESGGGLVQPGGSLRLSCAASGFTLSGDWIHWVRQAPGKGLEWVGEISAAGGYTDYADSVKGRFTISADTSKNTAYLQMNSLRAEDTAVYYCARESRVSFEAAMDYWGQGTLVTVSS
VL: DIQMTQSPSSLSASVGDRVTITCRASQNIATDVAWYQQKPGKAPKLLIYSASFLYSGVPSRFSGSGSGTDFTLTISSLQPEDFATYYCQQSEPEPYTFGQGTKVEIK
- IC50 for BxPC-3 ligand-driven cell proliferation inhibition (pM) [1]: 287 pM
- IC50 for BxPC-3 ligand-driven cell proliferation inhibition (pM) [2]: 287 pM
- IC50 for BxPC-3 ligand-driven cell proliferation inhibition (pM) [3]: 260 pM
- IC50 for BxPC-3 ligand-driven cell proliferation inhibition (pM) [4]: 260 pM
